# According to publication PMC7287642, “SPR Biosensor Based on Polymer Multi-Mode Optical Waveguide and Nanoparticle Signal Enhancement”:
# T1: C-reactive protein (CRP) (human, UniProt P02741 19-224)
# T1 sequence: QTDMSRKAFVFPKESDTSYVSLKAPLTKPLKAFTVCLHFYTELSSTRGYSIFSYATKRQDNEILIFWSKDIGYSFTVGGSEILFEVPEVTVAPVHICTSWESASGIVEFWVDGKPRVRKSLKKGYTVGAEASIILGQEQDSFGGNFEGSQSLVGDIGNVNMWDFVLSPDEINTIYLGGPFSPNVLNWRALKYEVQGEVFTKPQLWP
# B1: Apt1 (anti-CRP aptamer) (ssDNA)
# DNA: GGCAGGAAGACAAACACGATGGGGGGGTATGATTTGATGTGGTTGTTGCATGATCGTGGTTGTGGTGCTGT
# modifications: 5'-biotin
# Molecular target: T1, C-reactive protein (CRP)
# Test: SPR (AuNP-enhanced aptamer sandwich); Apt1 on sensor and on 17 nm AuNPs; 2 mM Ca2+, 10 mM Mg2+; response 0.118 nm/nM; no shift detected with CRP alone before AuNPs; 10 mM Tris, 50 mM NaCl, 2 mM CaCl2, 10 mM MgCl2, 5 mM KCl, pH 7.5; CRP 30 min, AuNPs 10 min; readout in H2O; binding temperature not stated
# Conditions: protein: native; chain copies: 5
binder,measurement,value
B1,binding result,binds
